In patent US20130302270A1:

What was measured:
[1] = molecular target: MUC16 (CA125), membrane-bound, on tumor cells (human) (UniProt Q8WXI7); experiment: flow cytometry on MUC16-positive OVCAR3 cells, anti-FLAG detection
[2] = molecular target: MUC16 (CA125), membrane-bound, on tumor cells (human) (UniProt Q8WXI7)

For “soluble mesothelin (Meso), secreted FLAG-tagged form of human mesothelin (from UniProt Q13421) (ligand)”, the percent of cells positive for the FLAG epitope tag [1] was 100% and the reduction of Meso-TR3 killing of OVCAR3 cells by soluble mesothelin (% cell killing) [2] was 40.
